{
  "source": "patent US20040235127",
  "proteins": {"B1": {"name": "sfp PPTase (phosphopantetheine transferase derived from Bacillus subtilis) (protein)", "chain": "MKIYGIYMDRPLSQEENERFMSFISPEKREKCRRFYHKEDAHRTLLGDVLVRSVISRQYQLDKSDIRFSTQEYGKPCIPDLPDAHFNISHSGRWVICAFDSQPIGIDIEKTKPISLEIAKRFFSKTEYSDLLAKDKDEQTDYFYHLWSMKESFIKQEGKGLSLPLDSFSVRLHQDGQVSIELPDSHSPCYIKTYEVDPGYKMAVCAAHPDFPEDITMVSYEELL"}},
  "molecular_target": "Schizochytrium PUFA PKS Orf A protein (carrying nine ACP domains)",
  "sequence (chain, as listed by the source)": "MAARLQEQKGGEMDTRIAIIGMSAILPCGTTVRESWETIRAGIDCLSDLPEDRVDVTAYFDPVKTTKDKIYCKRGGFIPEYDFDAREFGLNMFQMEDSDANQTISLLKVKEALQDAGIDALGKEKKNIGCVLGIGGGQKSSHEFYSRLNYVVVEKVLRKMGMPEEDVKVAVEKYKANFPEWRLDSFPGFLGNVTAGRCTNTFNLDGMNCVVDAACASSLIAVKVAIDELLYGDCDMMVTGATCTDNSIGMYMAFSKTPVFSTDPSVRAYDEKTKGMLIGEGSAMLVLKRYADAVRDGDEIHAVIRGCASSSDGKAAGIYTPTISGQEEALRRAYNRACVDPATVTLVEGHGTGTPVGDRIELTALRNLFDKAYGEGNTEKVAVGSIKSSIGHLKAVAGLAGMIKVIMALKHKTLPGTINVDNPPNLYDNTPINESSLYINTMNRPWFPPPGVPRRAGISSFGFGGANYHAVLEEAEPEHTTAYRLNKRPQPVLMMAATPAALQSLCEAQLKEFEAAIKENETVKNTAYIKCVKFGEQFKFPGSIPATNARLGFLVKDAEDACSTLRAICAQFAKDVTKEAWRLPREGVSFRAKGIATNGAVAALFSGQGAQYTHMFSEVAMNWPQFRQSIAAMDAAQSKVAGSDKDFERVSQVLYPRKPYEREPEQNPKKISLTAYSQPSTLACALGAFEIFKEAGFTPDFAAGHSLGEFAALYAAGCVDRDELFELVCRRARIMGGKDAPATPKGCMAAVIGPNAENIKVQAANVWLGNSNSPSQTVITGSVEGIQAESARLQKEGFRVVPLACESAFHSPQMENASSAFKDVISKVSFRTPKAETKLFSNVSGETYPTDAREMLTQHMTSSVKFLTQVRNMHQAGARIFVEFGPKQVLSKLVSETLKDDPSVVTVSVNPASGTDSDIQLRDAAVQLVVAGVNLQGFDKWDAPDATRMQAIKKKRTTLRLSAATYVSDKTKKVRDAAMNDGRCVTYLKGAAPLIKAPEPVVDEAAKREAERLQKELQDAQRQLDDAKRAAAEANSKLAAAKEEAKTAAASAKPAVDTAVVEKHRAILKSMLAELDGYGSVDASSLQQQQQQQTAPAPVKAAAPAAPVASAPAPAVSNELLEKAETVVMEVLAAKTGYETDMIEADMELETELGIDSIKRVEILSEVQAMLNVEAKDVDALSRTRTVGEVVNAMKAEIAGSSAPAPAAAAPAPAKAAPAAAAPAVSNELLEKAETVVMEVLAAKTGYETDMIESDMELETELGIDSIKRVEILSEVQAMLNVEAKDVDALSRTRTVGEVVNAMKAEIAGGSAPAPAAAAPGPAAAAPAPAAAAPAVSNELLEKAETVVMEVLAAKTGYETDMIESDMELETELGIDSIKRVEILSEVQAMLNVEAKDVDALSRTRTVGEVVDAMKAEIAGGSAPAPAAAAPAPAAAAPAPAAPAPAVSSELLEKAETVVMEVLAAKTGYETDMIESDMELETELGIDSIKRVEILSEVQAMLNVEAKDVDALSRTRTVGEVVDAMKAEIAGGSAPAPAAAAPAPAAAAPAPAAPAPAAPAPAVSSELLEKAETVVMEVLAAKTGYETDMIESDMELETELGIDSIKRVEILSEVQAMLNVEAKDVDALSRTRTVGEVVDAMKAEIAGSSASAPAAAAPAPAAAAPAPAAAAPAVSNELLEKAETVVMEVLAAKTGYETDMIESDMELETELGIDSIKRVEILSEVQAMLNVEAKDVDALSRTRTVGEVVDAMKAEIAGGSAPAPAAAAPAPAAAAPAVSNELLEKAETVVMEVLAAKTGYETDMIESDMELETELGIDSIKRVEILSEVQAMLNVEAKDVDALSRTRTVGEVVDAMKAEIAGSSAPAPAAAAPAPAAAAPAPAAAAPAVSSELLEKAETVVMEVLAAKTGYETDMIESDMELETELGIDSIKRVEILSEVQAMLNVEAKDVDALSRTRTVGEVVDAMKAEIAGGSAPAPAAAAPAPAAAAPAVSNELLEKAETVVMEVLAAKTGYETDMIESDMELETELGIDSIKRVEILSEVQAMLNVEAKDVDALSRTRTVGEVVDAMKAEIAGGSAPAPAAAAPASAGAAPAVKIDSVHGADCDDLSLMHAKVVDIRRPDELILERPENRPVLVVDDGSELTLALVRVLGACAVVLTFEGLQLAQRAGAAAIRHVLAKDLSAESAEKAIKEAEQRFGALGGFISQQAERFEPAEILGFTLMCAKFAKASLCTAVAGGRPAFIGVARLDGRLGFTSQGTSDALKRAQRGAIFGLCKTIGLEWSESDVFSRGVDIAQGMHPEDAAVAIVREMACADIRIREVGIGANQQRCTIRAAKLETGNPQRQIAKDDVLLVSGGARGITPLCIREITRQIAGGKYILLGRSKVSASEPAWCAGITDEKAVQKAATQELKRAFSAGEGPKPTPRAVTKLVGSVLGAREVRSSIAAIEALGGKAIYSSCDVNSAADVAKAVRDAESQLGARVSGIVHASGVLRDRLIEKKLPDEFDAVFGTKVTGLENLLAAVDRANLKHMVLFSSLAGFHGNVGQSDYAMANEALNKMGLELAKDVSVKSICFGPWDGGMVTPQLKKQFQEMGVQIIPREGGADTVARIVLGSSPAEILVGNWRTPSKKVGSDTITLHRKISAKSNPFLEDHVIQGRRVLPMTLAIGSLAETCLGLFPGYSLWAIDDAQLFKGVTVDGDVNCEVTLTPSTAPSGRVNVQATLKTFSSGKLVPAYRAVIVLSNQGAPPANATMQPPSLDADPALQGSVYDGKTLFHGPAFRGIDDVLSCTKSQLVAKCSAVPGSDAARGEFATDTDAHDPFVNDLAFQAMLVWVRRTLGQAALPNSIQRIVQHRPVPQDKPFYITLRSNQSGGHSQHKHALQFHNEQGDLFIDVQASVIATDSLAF",
  "data": [
    {"protein": "B1", "values": [
      {"measurement": "DHA production in E. coli co-expressing the PPTase with Orf A, B*, C (FAME analysis by gas-liquid chromatography)", "value": "Co-expression of the sfp construct in cells expressing the Orf A, B*, C proteins, under certain conditions, resulted in DHA production."}
    ]}
  ]
}
